Reference: article doi:10.1101/2024.12.27.630498 (bioRxiv, 2024)

Target: the molecule itself
Assay: cryo-EM structure

B1: Arabidopsis thaliana AKT1 (Arabidopsis K+ transporter 1), construct for the structure of AKT1 alone (natural protein)
chain: not shown
  stoichiometry N: 4
